Assay results as given in patent US20110105394A1 (Novo Nordisk, published 2011).
*1 amine or outer side, *2 acyl side, *3 side chain or, on linkers, in order; H or OH if unused. Bridges are numbered along the chain shown (N, C = ends). Where no end group is shown, it is not given here. Side-chain parts run from the residue outwards. The star is where a group is joined. X2 = (S)‑4‑Carboxy‑4‑(19-carboxynonadecanoylamino)butyryl, O=C(O)CCCCCCCCCCCCCCCCCCC(=O)N[C@@H](CCC(=O)*)C(=O)O; X1 = (S)‑4‑Carboxy‑4‑(17-carboxyheptadecanoylamino)butyryl, O=C(O)CCCCCCCCCCCCCCCCC(=O)N[C@@H](CCC(=O)*)C(=O)O; C20 diacid = O=C(O)CCCCCCCCCCCCCCCCCCC(=O)*; γGlu = O=C(O)[C@H](CCC(=O)[*:2])N[*:1]; AEEA = NCCOCCOCC(=O)O

T1: Amylin 3(a) receptor (human calcitonin receptor (CTa) with RAMP-3) (human, UniProt P30988 25-474; O60896 24-148, limits assumed)
T1 sequence (looked up) 1: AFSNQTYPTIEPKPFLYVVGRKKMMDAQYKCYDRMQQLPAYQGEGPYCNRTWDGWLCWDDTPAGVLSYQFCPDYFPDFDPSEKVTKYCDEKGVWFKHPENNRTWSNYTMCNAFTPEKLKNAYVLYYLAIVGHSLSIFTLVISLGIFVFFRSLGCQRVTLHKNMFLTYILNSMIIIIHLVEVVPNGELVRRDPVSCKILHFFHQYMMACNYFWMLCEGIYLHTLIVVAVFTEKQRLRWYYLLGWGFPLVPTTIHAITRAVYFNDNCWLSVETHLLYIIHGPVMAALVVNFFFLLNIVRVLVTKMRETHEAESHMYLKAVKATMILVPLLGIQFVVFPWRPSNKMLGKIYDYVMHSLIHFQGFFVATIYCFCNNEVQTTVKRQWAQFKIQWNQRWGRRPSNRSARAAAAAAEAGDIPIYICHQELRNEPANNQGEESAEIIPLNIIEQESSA
T1 sequence (looked up) 2: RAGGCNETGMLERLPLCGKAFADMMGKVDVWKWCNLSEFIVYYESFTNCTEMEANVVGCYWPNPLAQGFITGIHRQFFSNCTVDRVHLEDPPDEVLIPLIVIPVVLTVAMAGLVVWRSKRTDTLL

B1: N-alpha-[2-(2-{2-[4-(S)-Carboxy-4-(19-carboxynonadecanoylamino)butyrylamino]ethoxy}ethoxy)acetyl]-Arg-[Ala17]-pramlintide (peptide)
peptide: {C20 diacid-γGlu-AEEA}-RKCNTATCATQRLANFLAHSSNNFGPILPPTNVGSNTY-NH2
modifications: disulfide 3-8
SMILES: CC[C@H](C)[C@H](NC(=O)[C@@H]1CCCN1C(=O)CNC(=O)[C@H](Cc1ccccc1)NC(=O)[C@H](CC(N)=O)NC(=O)[C@H](CC(N)=O)NC(=O)[C@H](CO)NC(=O)[C@H](CO)NC(=O)[C@H](Cc1c[nH]cn1)NC(=O)[C@H](C)NC(=O)[C@H](CC(C)C)NC(=O)[C@H](Cc1ccccc1)NC(=O)[C@H](CC(N)=O)NC(=O)[C@H](C)NC(=O)[C@H](CC(C)C)NC(=O)[C@H](CCCNC(=N)N)NC(=O)[C@H](CCC(N)=O)NC(=O)[C@@H](NC(=O)[C@H](C)NC(=O)[C@@H]1CSSC[C@H](NC(=O)[C@H](CCCCN)NC(=O)[C@H](CCCNC(=N)N)NC(=O)COCCOCCNC(=O)CC[C@H](NC(=O)CCCCCCCCCCCCCCCCCCC(=O)O)C(=O)O)C(=O)N[C@@H](CC(N)=O)C(=O)N[C@@H]([C@@H](C)O)C(=O)N[C@@H](C)C(=O)N[C@@H]([C@@H](C)O)C(=O)N1)[C@@H](C)O)C(=O)N[C@@H](CC(C)C)C(=O)N1CCC[C@H]1C(=O)N1CCC[C@H]1C(=O)N[C@H](C(=O)N[C@@H](CC(N)=O)C(=O)N[C@H](C(=O)NCC(=O)N[C@@H](CO)C(=O)N[C@@H](CC(N)=O)C(=O)N[C@H](C(=O)N[C@@H](Cc1ccc(O)cc1)C(N)=O)[C@@H](C)O)C(C)C)[C@@H](C)O
B2: N-alpha-[(S)-4-Carboxy-4-(19-carboxynonadecanoylamino)butyryl]-His-[His17]-pramlintide (peptide)
peptide: HKCNTATCATQRLANFLHHSSNNFGPILPPTNVGSNTY-NH2
modifications: disulfide 3-8; not fully specified (N-terminus); printed as N-alpha-[(S)-4-Carboxy-4-(19-carboxynonadecanoylamino)butyryl]-His-[His17]-pramlintide
B3: N-alpha-[(S)-4-Carboxy-4-(17-carboxyheptadecanoylamino)butyryl]-His-[His1,His17]-pramlintide (peptide)
peptide: X1-HHCNTATCATQRLANFLHHSSNNFGPILPPTNVGSNTY-NH2
modifications: disulfide 3-8
SMILES: CC[C@H](C)[C@H](NC(=O)[C@@H]1CCCN1C(=O)CNC(=O)[C@H](Cc1ccccc1)NC(=O)[C@H](CC(N)=O)NC(=O)[C@H](CC(N)=O)NC(=O)[C@H](CO)NC(=O)[C@H](CO)NC(=O)[C@H](Cc1c[nH]cn1)NC(=O)[C@H](Cc1c[nH]cn1)NC(=O)[C@H](CC(C)C)NC(=O)[C@H](Cc1ccccc1)NC(=O)[C@H](CC(N)=O)NC(=O)[C@H](C)NC(=O)[C@H](CC(C)C)NC(=O)[C@H](CCCNC(=N)N)NC(=O)[C@H](CCC(N)=O)NC(=O)[C@@H](NC(=O)[C@H](C)NC(=O)[C@@H]1CSSC[C@H](NC(=O)[C@H](Cc2c[nH]cn2)NC(=O)[C@H](Cc2c[nH]cn2)NC(=O)CC[C@H](NC(=O)CCCCCCCCCCCCCCCCC(=O)O)C(=O)O)C(=O)N[C@@H](CC(N)=O)C(=O)N[C@@H]([C@@H](C)O)C(=O)N[C@@H](C)C(=O)N[C@@H]([C@@H](C)O)C(=O)N1)[C@@H](C)O)C(=O)N[C@@H](CC(C)C)C(=O)N1CCC[C@H]1C(=O)N1CCC[C@H]1C(=O)N[C@H](C(=O)N[C@@H](CC(N)=O)C(=O)N[C@H](C(=O)NCC(=O)N[C@@H](CO)C(=O)N[C@@H](CC(N)=O)C(=O)N[C@H](C(=O)N[C@@H](Cc1ccc(O)cc1)C(N)=O)[C@@H](C)O)C(C)C)[C@@H](C)O
B4: N-alpha-[(S)-4-Carboxy-4-(17-carboxyheptadecanoylamino)butyryl]-Arg-[Arg17]-pramlintide (peptide)
peptide: X1-RKCNTATCATQRLANFLRHSSNNFGPILPPTNVGSNTY-NH2
modifications: disulfide 3-8
SMILES: CC[C@H](C)[C@H](NC(=O)[C@@H]1CCCN1C(=O)CNC(=O)[C@H](Cc1ccccc1)NC(=O)[C@H](CC(N)=O)NC(=O)[C@H](CC(N)=O)NC(=O)[C@H](CO)NC(=O)[C@H](CO)NC(=O)[C@H](Cc1c[nH]cn1)NC(=O)[C@H](CCCNC(=N)N)NC(=O)[C@H](CC(C)C)NC(=O)[C@H](Cc1ccccc1)NC(=O)[C@H](CC(N)=O)NC(=O)[C@H](C)NC(=O)[C@H](CC(C)C)NC(=O)[C@H](CCCNC(=N)N)NC(=O)[C@H](CCC(N)=O)NC(=O)[C@@H](NC(=O)[C@H](C)NC(=O)[C@@H]1CSSC[C@H](NC(=O)[C@H](CCCCN)NC(=O)[C@H](CCCNC(=N)N)NC(=O)CC[C@H](NC(=O)CCCCCCCCCCCCCCCCC(=O)O)C(=O)O)C(=O)N[C@@H](CC(N)=O)C(=O)N[C@@H]([C@@H](C)O)C(=O)N[C@@H](C)C(=O)N[C@@H]([C@@H](C)O)C(=O)N1)[C@@H](C)O)C(=O)N[C@@H](CC(C)C)C(=O)N1CCC[C@H]1C(=O)N1CCC[C@H]1C(=O)N[C@H](C(=O)N[C@@H](CC(N)=O)C(=O)N[C@H](C(=O)NCC(=O)N[C@@H](CO)C(=O)N[C@@H](CC(N)=O)C(=O)N[C@H](C(=O)N[C@@H](Cc1ccc(O)cc1)C(N)=O)[C@@H](C)O)C(C)C)[C@@H](C)O
B5: N-alpha-[(S)-4-Carboxy-4-(19-carboxynonadecanoylamino)butyryl]-His-[His1,His17]-pramlintide (peptide)
peptide: HHCNTATCATQRLANFLHHSSNNFGPILPPTNVGSNTY-NH2
modifications: disulfide 3-8; not fully specified (N-terminus); printed as N-alpha-[(S)-4-Carboxy-4-(19-carboxynonadecanoylamino)butyryl]-His-[His1,His17]-pramlintide
B6: N-alpha-[2-(2-{2-[4-(S)-Carboxy-4-(19-carboxynonadecanoylamino)butyrylamino]ethoxy}ethoxy)acetyl]-Arg-[Arg17]-pramlintide (peptide)
peptide: {C20 diacid-γGlu-AEEA}-RKCNTATCATQRLANFLRHSSNNFGPILPPTNVGSNTY-NH2
modifications: disulfide 3-8
SMILES: CC[C@H](C)[C@H](NC(=O)[C@@H]1CCCN1C(=O)CNC(=O)[C@H](Cc1ccccc1)NC(=O)[C@H](CC(N)=O)NC(=O)[C@H](CC(N)=O)NC(=O)[C@H](CO)NC(=O)[C@H](CO)NC(=O)[C@H](Cc1c[nH]cn1)NC(=O)[C@H](CCCNC(=N)N)NC(=O)[C@H](CC(C)C)NC(=O)[C@H](Cc1ccccc1)NC(=O)[C@H](CC(N)=O)NC(=O)[C@H](C)NC(=O)[C@H](CC(C)C)NC(=O)[C@H](CCCNC(=N)N)NC(=O)[C@H](CCC(N)=O)NC(=O)[C@@H](NC(=O)[C@H](C)NC(=O)[C@@H]1CSSC[C@H](NC(=O)[C@H](CCCCN)NC(=O)[C@H](CCCNC(=N)N)NC(=O)COCCOCCNC(=O)CC[C@H](NC(=O)CCCCCCCCCCCCCCCCCCC(=O)O)C(=O)O)C(=O)N[C@@H](CC(N)=O)C(=O)N[C@@H]([C@@H](C)O)C(=O)N[C@@H](C)C(=O)N[C@@H]([C@@H](C)O)C(=O)N1)[C@@H](C)O)C(=O)N[C@@H](CC(C)C)C(=O)N1CCC[C@H]1C(=O)N1CCC[C@H]1C(=O)N[C@H](C(=O)N[C@@H](CC(N)=O)C(=O)N[C@H](C(=O)NCC(=O)N[C@@H](CO)C(=O)N[C@@H](CC(N)=O)C(=O)N[C@H](C(=O)N[C@@H](Cc1ccc(O)cc1)C(N)=O)[C@@H](C)O)C(C)C)[C@@H](C)O
B7: N-alpha-[(S)-4-Carboxy-4-(19-carboxynonadecanoylamino)butyryl]-Arg-[Arg17]-pramlintide (peptide)
peptide: X2-RKCNTATCATQRLANFLRHSSNNFGPILPPTNVGSNTY-NH2
modifications: disulfide 3-8
SMILES: CC[C@H](C)[C@H](NC(=O)[C@@H]1CCCN1C(=O)CNC(=O)[C@H](Cc1ccccc1)NC(=O)[C@H](CC(N)=O)NC(=O)[C@H](CC(N)=O)NC(=O)[C@H](CO)NC(=O)[C@H](CO)NC(=O)[C@H](Cc1c[nH]cn1)NC(=O)[C@H](CCCNC(=N)N)NC(=O)[C@H](CC(C)C)NC(=O)[C@H](Cc1ccccc1)NC(=O)[C@H](CC(N)=O)NC(=O)[C@H](C)NC(=O)[C@H](CC(C)C)NC(=O)[C@H](CCCNC(=N)N)NC(=O)[C@H](CCC(N)=O)NC(=O)[C@@H](NC(=O)[C@H](C)NC(=O)[C@@H]1CSSC[C@H](NC(=O)[C@H](CCCCN)NC(=O)[C@H](CCCNC(=N)N)NC(=O)CC[C@H](NC(=O)CCCCCCCCCCCCCCCCCCC(=O)O)C(=O)O)C(=O)N[C@@H](CC(N)=O)C(=O)N[C@@H]([C@@H](C)O)C(=O)N[C@@H](C)C(=O)N[C@@H]([C@@H](C)O)C(=O)N1)[C@@H](C)O)C(=O)N[C@@H](CC(C)C)C(=O)N1CCC[C@H]1C(=O)N1CCC[C@H]1C(=O)N[C@H](C(=O)N[C@@H](CC(N)=O)C(=O)N[C@H](C(=O)NCC(=O)N[C@@H](CO)C(=O)N[C@@H](CC(N)=O)C(=O)N[C@H](C(=O)N[C@@H](Cc1ccc(O)cc1)C(N)=O)[C@@H](C)O)C(C)C)[C@@H](C)O

target: T1, Amylin 3(a) receptor (human calcitonin …); assay: cell-based or functional assay

Going from X1-HCNTATCATQRLANFLHHSSNNFGPILPPTNVGSNTY-NH2 (disulfide 2-7) [N-alpha-[(S)-4-Carboxy-4-(17-carboxyheptadecanoylamino)butyryl]-[His1,His17]-pramlintide] to KCK([AEEA-Glu-Glu-C20 diacid])TATCATQRLANFLHHSSDNFGPILPPTNVGSNTY-NH2 (disulfide 2-7), the “Potency Luciferase” value rises from 80 pM to 400 pM (5-fold).

B1 and B2 are within 1.5-fold of each other in “Potency Luciferase” value: 80 pM for the first, 100 pM for the second.

Going from B3 to B4, the “Potency Luciferase” value rises from 20 pM to 50 pM (2.5-fold).

{C20 diacid-γGlu}-HCNTATCATQRLANFLHHSSNNFGPILPPTNVGSNTY-NH2 (disulfide 2-7) [N-alpha-[(S)-4-Carboxy-4-(19-carboxynonadecanoylamino)butyryl]-[His1,His17]-pramlintide] and B5 are within 1.5-fold of each other in “Potency Luciferase” value: 70 pM for the first, 100 pM for the second.

Compared with {C20 diacid-4‑aminobutyryl}-RKCNTATCATQRLANFLRHSSNNFGPILPPTNVGSNTY-NH2 (disulfide 3-8) [N-alpha-[4-(19-Carboxynonadecanoylamino)butyryl]-Arg-[Arg17]-pramlintide], B6 is 3.3-fold higher in “Potency Luciferase” value: 30 pM for the first, 100 pM for the second.

First: {C20 diacid-4‑aminobutyryl}-CNTATCATQRLANFLHHSSNNFGPILPPTNVGSNTY-NH2 (disulfide 1-6) [N-alpha-[4-(19-Carboxynonadecanoylamino)butyryl]-[His17]-pramlintide (2-37)]
Second: B7
The “Potency Luciferase” value of the first is 1.7-fold lower: 60 pM for the first, 100 pM for the second.
